Values quoted from earlier work, collected in publication PMC2884063.
pKd: −log10 of the molar value.

Molecular target: Importin β (Homo sapiens) (UniProt Q14974)
UniProt Q14974, sequence (Q14974 whole entry): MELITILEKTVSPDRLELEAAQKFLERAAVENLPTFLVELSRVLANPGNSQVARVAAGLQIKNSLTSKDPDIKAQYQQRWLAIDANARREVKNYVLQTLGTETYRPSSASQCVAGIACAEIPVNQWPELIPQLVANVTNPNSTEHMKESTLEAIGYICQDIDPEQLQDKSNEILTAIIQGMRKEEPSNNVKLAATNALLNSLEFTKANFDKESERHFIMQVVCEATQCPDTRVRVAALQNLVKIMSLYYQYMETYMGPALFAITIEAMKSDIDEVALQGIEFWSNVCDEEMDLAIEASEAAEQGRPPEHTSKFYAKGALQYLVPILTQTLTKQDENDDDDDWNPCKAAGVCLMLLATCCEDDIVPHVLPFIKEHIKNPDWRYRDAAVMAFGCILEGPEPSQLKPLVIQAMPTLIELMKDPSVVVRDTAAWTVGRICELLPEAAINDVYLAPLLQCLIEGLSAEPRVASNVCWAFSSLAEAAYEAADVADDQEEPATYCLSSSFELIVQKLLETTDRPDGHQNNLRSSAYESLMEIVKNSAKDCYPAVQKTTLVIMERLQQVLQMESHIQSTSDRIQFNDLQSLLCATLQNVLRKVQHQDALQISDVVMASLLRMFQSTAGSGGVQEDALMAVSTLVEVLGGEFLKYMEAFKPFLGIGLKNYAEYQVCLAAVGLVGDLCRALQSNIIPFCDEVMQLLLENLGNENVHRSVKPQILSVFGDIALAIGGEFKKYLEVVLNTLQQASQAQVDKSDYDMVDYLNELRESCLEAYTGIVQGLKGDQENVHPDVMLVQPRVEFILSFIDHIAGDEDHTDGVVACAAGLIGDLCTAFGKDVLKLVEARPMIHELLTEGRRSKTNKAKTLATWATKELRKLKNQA

pKd: 8.70
Substance: Snp1 (snurportin 1) IBB (from UniProt O95149)
